For three molecules, binding result and fold enrichment against the CARAC (SEQ ID NO:71) precipitated fraction results are on record in patent US20060239968A1 (University of Texas, published 2006).

Positions of bridges follow the written chain, without caps; N, C: chain ends. Non-standard residues stand in square brackets, D forms with d. No end group written: not given here.

Assay [1] concerns the target T1, Recombinant IL-11Rα (IL-11 receptor alpha) (UniProt Q14626 23-370, limits assumed).
T1 construct: also called immobilized IL-11Rα
T1 sequence (looked up): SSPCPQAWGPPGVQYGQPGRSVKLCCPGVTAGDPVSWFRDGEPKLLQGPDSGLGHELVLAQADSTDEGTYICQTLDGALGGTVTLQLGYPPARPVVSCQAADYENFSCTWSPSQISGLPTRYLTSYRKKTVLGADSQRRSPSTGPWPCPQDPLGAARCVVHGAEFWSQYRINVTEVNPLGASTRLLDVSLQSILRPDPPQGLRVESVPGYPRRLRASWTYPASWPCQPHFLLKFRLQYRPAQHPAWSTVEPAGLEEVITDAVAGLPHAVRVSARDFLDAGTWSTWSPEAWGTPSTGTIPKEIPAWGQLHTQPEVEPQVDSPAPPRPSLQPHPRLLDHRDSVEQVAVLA
The assay can be described thus: in vitro ligand-receptor binding assay, phage on recombinant receptor. As for the experimental part:
(§1) Recombinant IL-11Rα, vascular endothelial growth factor receptor-1 (VEGFR1) or leptin receptor (OB-R) were incubated with phage displaying the […] (SEQ ID NO:37) peptide. VEGFR1 was used as a representative vascular receptor, while OB-R was used because it shares a co-receptor with IL-11Rα. An unrelated phage clone displaying the peptide […] (SEQ ID NO:38) and insertless fd-tet phage were used as controls. […] Binding of […] (SEQ ID NO:37)-phage to IL-11Rα was specific, since it was inhibited by the native IL-11 ligand in a concentration-dependent manner (not shown). […] These observations with normal prostate tissues were followed by an examination of the expression of IL-11Rα in tumors, as discussed in the present Example.

Assay [2] deals with vascular endothelial growth factor receptor-1 (VEGFR1), recombinant (UniProt P17948 27-756, limits assumed). The description is as above. As for the experimental part: as §1
The target in assay [3] is T2, leptin receptor (OB-R), recombinant (UniProt P48357 22-839, limits assumed).
T2 sequence (looked up): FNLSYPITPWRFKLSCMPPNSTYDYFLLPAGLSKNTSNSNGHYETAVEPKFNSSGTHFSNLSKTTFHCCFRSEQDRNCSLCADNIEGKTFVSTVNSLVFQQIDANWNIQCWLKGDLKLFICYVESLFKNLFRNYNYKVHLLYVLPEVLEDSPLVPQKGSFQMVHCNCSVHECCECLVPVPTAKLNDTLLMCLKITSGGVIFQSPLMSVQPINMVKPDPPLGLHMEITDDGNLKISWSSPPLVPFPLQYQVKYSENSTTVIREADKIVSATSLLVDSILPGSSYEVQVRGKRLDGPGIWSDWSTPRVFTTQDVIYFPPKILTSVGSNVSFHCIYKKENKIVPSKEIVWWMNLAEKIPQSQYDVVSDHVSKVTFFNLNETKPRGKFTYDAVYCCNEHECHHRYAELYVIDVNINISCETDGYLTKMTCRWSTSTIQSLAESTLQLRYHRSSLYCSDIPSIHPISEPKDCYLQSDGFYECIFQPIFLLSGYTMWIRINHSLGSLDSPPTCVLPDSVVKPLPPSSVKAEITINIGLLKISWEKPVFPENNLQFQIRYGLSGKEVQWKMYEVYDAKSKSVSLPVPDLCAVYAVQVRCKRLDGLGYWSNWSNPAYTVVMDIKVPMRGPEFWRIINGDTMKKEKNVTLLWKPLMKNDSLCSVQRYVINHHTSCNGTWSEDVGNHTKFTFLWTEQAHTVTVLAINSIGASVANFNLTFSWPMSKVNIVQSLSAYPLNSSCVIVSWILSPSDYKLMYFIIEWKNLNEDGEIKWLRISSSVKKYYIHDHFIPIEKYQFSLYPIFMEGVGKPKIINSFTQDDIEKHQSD
The description is as above. As for the experimental part:
as §1

Assay [4] has as its target T3, prohibitin (B cell receptor associated protein) (mouse).
T3 sequence (P67778 2-272, looked up): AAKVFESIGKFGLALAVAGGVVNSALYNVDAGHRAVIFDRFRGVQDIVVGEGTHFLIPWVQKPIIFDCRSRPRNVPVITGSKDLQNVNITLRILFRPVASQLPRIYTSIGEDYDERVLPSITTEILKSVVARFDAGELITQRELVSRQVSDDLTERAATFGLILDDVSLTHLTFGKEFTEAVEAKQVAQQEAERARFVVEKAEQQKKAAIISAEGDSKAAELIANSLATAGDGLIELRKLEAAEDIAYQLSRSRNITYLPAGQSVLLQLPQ
The assay can be described thus: immunoprecipitation from mouse adipose tissue extract, SDS-PAGE.

Chain of vascular endothelial growth factor receptor-1 (VEGFR1), recombinant (P17948 27-756 limits assumed): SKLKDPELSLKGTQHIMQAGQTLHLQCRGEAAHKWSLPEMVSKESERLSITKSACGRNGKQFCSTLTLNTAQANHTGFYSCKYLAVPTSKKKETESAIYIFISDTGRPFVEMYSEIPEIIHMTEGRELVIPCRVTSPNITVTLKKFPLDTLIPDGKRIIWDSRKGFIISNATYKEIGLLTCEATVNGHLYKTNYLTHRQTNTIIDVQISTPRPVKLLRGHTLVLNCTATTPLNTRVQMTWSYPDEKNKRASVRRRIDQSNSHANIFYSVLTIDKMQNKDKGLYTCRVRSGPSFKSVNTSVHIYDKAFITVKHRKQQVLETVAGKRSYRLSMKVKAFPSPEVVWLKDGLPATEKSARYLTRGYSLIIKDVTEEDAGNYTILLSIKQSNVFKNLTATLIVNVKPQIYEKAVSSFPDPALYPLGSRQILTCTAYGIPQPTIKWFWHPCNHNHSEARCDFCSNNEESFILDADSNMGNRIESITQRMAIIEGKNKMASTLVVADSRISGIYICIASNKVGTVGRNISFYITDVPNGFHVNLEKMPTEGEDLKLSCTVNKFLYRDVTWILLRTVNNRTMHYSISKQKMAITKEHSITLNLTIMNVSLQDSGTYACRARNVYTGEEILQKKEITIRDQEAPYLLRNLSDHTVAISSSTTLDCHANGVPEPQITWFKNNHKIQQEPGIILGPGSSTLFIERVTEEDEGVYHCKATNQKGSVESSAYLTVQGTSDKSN

B1: unrelated phage clone displaying the peptide CRVDFSKGC (SEQ ID NO:38) (peptide)
peptide: CRVDFSKGC
notes: used as a control; also called control phage
On to B1, for which the binding result in assay [1] was “no binding”.

B2: CGRRAGGSC (SEQ ID NO:37)-displaying phage (peptide)
peptide: CGRRAGGSC
modifications: not fully specified (bridges); cysteine pairing not given here; also: displayed on filamentous phage
notes: also called prostate-homing phage displaying an IL-11 peptide mimic
For B2, the binding result in assay [2] and in assay [3] was “no binding” throughout.

B3: … (SEQ ID NO:81) conjugated to (KLAKLAK)2 (SEQ ID NO:1) (peptide)
peptide: CKGGRAKDCGG[dK][dL][dA][dK][dL][dA][dK][dK][dL][dA][dK][dL][dA][dK]
modifications: disulfide 1-9 (inferred); not fully specified; also: order of the parts not given here explicitly
B3: the fold enrichment against the CARAC (SEQ ID NO:71) precipitated fraction in assay [4] is more than 10 fold.
